Among the data in the supplement of paper PMC10126150 are switch fluorescence ratio values, retold here.

± gives the standard deviation of the averaged measurements.

The series deals with ATP. Nature of the series: switch fluorescence ratio, 500 uM ATP over buffer (Cy3 cluster intensity, sum of 5 cycles each) (fold (ratio)); higher = stronger signal-on switching upon ATP binding; sequences stand for … in TCGTCGGCAGCGTCAGATGTGTATAAGAGACAGTTTTTTTTTTTTTTTTTTTTTTTTT…TC. The following applies: aptamer strand: ATP DNA aptamer (quencher-CACCTGGGGGAGTATTGCGGAGGAAGG + anchor), 100 nM annealed; ATP concentration: 500 uM. In outline:
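Switching-strand clusters labelled with Cy3 on a modified Illumina MiSeq flow-cell were annealed to 100 nM quencher-labelled ATP aptamer, imaged in selection buffer, and re-imaged after 15 min with 500 uM ATP at 22 °C. This was done over five cycles with NaOH stripping and re-annealing in between. The fluorescence ratio is summed target-cycle over summed buffer-cycle Cy3 intensity per cluster, averaged per switch-domain sequence, excluding clusters outside 100-1000 RFU.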
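Note: ATP exposure 15 min at 22 °C before imaging.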

Take TGCCTAGTTT: the switch fluorescence ratio was found to be 0.995 ± 0.064.
Take TGCCTTAAGT: the switch fluorescence ratio was found to be 1.01 ± 0.063.
Then TGCGAGGCGT, with 0.997 ± 0.021.
Then TGCGAGGGTG, with 1.02 ± 0.065; and TGCGATACGG, with 2.71 ± 0.12.
Then TGCGATGAGG, with 1.01 ± 0.046; and TGCGCCGGGT, with 1.12 ± 0.1.
For TGCGCGAAAT, the switch fluorescence ratio was determined as 0.995 ± 0.0021.
Then TGCGCGCTGG, with 1 ± 0.041; and TGCGCTATGT, with 1.07 ± 0.022.
Then TGCGCTTGTC, with 0.974 ± 0.082; and TGCGGAAAAC, with 1.72 ± 0.82.
For the sequence TGCGGATATA, the switch fluorescence ratio was found to be 1.04 ± 0.043.
The value for TGCGGGCCAT was 1.027 ± 0.0067; that for TGCGGGGAGG was 1.01 ± 0.0017; that for TGCGGGGCTT was 0.997 ± 0.048.
On to TGCGGGGGAG, for which the switch fluorescence ratio stood at 0.996 ± 0.02.
The value for TGCGGGTCGG was 1.03 ± 0.031; that for TGCGGTAAGG was 1 ± 0.031.
Then TGCGGTAATT, with 1.14 ± 0.16; and TGCGGTTGGG, with 1.022 ± 0.003; and TGCGTGAGGG, with 1.04 ± 0.016.
On to TGCGTGTGGT, for which the switch fluorescence ratio came out at 1.036 ± 0.0046.
TGCGTGTGTC: the switch fluorescence ratio worked out at 1.05 ± 0.024.
The value for TGCGTGTTGA was 1.04 ± 0.0081; that for TGCGTTACAG was 1.01 ± 0.044; that for TGCGTTAGCC was 1.035 ± 0.0025.
The value for TGCGTTGGAG was 1.08 ± 0.057; that for TGCGTTTATT was 0.994 ± 0.015; that for TGCGTTTCGA was 1.03 ± 0.025.
The value for TGCGTTTGTT was 0.996 ± 0.029; that for TGCTAGATAA was 1 ± 0.039; that for TGCTAGCATT was 1.11 ± 0.15.
Regarding TGCTAGCTAT, the switch fluorescence ratio was 1.02 ± 0.0029.
With TGCTAGGGAA, the switch fluorescence ratio was 0.975 ± 0.015.
Then TGCTAGGGAT, with 1.01 ± 0.029; and TGCTAGGGTA, with 0.985 ± 0.012; and TGCTAGGGTT, with 1 ± 0.032.
Then TGCTAGTTCT, with 0.99 ± 0.016; and TGCTATGGGC, with 1.01 ± 0.017; and TGCTATTGTG, with 0.959 ± 0.02.
The value for TGCTATTTAC was 1.1 ± 0.069.
Take TGCTCCTTAG: the switch fluorescence ratio was determined as 1.07 ± 0.03.
Then TGCTCGTATA, with 0.9852 ± 0.0062; and TGCTCGTGCT, with 1.01 ± 0.028; and TGCTCTAAGG, with 1.02 ± 0.046.
The value for TGCTCTTTCA was 1 ± 0.025.
The value for TGCTGAAGGA was 0.9743 ± 0.0064.
As for TGCTGCCGGT, the switch fluorescence ratio came out at 1.02 ± 0.096.
Then TGCTGCGACG, with 1.003 ± 0.0022; and TGCTGCTACC, with 1.07 ± 0.037.
The value for TGCTGGAGCT was 1.06 ± 0.022; that for TGCTGGGGGC was 0.971 ± 0.022; that for TGCTGGGGTA was 0.99 ± 0.024.
Then TGCTGTAGGG, with 0.966 ± 0.053.
Consider TGCTGTGGAA, for which the switch fluorescence ratio turned out to be 1.011 ± 0.0096.
Then TGCTTGCAAA, with 1.06 ± 0.069.
The value for TGCTTGGGGG was 0.979 ± 0.016.
Then TGCTTGGGTC, with 1.01 ± 0.028.
With TGCTTGTGTT, the switch fluorescence ratio is 0.9912 ± 0.0064.
Then TGCTTGTTAC, with 1.03 ± 0.018; and TGCTTTAGGT, with 0.9922 ± 0.0092; and TGCTTTATAT, with 1.18 ± 0.29.
Then TGCTTTTGGG, with 0.976 ± 0.0021; and TGCTTTTTCA, with 0.9895 ± 0.0042; and TGGAAAGCCT, with 1.05 ± 0.1.
Then TGGAAAGTGG, with 0.9818 ± 0.005; and TGGAAAGTTT, with 1 ± 0.052.
With TGGAAATACG, the switch fluorescence ratio was determined as 1.06 ± 0.013.
The value for TGGAACGGAG was 0.98 ± 0.021; that for TGGAACGGTT was 1.04 ± 0.047.
TGGAAGCGTT: the switch fluorescence ratio amounted to 0.98 ± 0.041.
On to TGGAATGCGC, for which the switch fluorescence ratio was determined as 1.24 ± 0.36.
Consider TGGAATTAGC, for which the switch fluorescence ratio was found to be 1.04 ± 0.054.
The value for TGGAATTGCC was 1.024 ± 0.0089.
For the sequence TGGAATTGGT, the switch fluorescence ratio is 1.02 ± 0.032.
The value for TGGAATTGTT was 1 ± 0.026.
Then TGGACAATGG, with 1.03 ± 0.051; and TGGACCCGGC, with 0.9858 ± 0.0054; and TGGACGTGAT, with 1.83 ± 1.
The value for TGGACTACGC was 1.06 ± 0.012.
As for TGGACTAGGG, the switch fluorescence ratio turned out to be 0.975 ± 0.049.
For TGGACTGGGG, the switch fluorescence ratio came to 0.9861 ± 0.0056.
The value for TGGACTTGGT was 0.97 ± 0.017.
Then TGGAGAGGAT, with 0.9825 ± 0.0026; and TGGAGATTGT, with 0.943 ± 0.032; and TGGAGGAAGA, with 1.04 ± 0.055.
The value for TGGAGGAGCG was 0.955 ± 0.036; that for TGGAGGGATG was 1.01 ± 0.054.
For the sequence TGGAGGGATT, the switch fluorescence ratio was 1.02 ± 0.013.
Then TGGAGGGGGA, with 0.999 ± 0.038; and TGGAGGGTTG, with 1 ± 0.026.
Turning to TGGAGGGTTT, the switch fluorescence ratio came out at 1.07 ± 0.1.
With TGGAGGTGTT, the switch fluorescence ratio stood at 1.03 ± 0.035.
Then TGGAGTAGAT, with 0.986 ± 0.038.
Then TGGAGTCAGG, with 1.05 ± 0.049; and TGGAGTGTGG, with 0.912 ± 0.087; and TGGATAAAGT, with 0.985 ± 0.013.
The value for TGGATAAGCG was 1 ± 0.032; that for TGGATAAGTG was 0.998 ± 0.048.
TGGATACCCT: the switch fluorescence ratio turned out to be 1.0117 ± 0.00031.
The value for TGGATATTTA was 0.978 ± 0.012; that for TGGATCACTT was 1.01 ± 0.028.
The value for TGGATCATAG was 0.999 ± 0.038.
Then TGGATCTTAT, with 1.01 ± 0.034; and TGGATGAATT, with 0.9981 ± 0.0045; and TGGATGATGG, with 0.961 ± 0.019.
Turning to TGGATTACTT, the switch fluorescence ratio came to 1.02 ± 0.026.
Then TGGATTAGGC, with 1.01 ± 0.048; and TGGATTTAAT, with 1.01 ± 0.049; and TGGATTTCGC, with 1 ± 0.027.
Then TGGATTTTTG, with 0.9666 ± 0.0042; and TGGCACGACA, with 1.09 ± 0.042; and TGGCACTTTT, with 1.006 ± 0.0063.
On to TGGCAGCAGG, for which the switch fluorescence ratio is 1 ± 0.024.
Then TGGCAGGCAC, with 1.04 ± 0.012; and TGGCATCGGG, with 1.01 ± 0.042; and TGGCCAAATT, with 1.03 ± 0.019.
Then TGGCCGGCTT, with 1.044 ± 0.0066.
The value for TGGCCGTCAT was 0.98 ± 0.032.
